Measured values as given in paper PMC4838890, “Dynamic and flexible H3K9me3 bridging via HP1β dimerization establishes a plastic state of condensed chromatin” (Nature Communications, 2016).
Read-outs that look alike come from different tables or passages of the source.

Assays:
H3KC9me3 mononucleosome = test: ITC, H3KC9me3 mononucleosome; type: binding, Xenopus laevis; settings: for Kd: ITC, pH 7.5, 25°C, read-out: Kd (apparent dissociation constant)
Source text: Mononucleosomes were reconstituted on a 187 bp DNA fragment containing the ‘601' sequence flanked on each site by a linker of 20 bp[55]. Oligonucleosomes were reconstituted on a 12 × 200 bp × 601 template. Plasmids carrying the respective inserts were purified using a Giga kit (Qiagen, Hilden, Germany). Templates for reconstitution were released from plasmids by restriction digest with BsoBI for mononucleosomes and a mix of DdeI, BfuCI, HaeII and EcoRI for oligonucleosomes. To separate vector backbone from DNA used for chromatin assembly stepwise precipitation with polyethylene glycol (PEG) 6000/0.5 M NaCl was carried out (final PEG concentration 2–9% and 20% (w/v)). DNA pellets were washed with 70% (v/v) ethanol and dissolved in water. Double stranded, short, biotinylated DNA linkers were ligated to the DNA template before chromatin reconstitution.
ITC measurements were performed on a iTC200 calorimeter (Microcal, Malvern, UK) at 25°C in binding buffer (10 mM triethanolamine (pH 7.5), 20 or 150 mM NaCl, 0.1 mM EDTA). Reaction heats were recorded by sequences of 37 injections of 1.8 mM hHP1β, spaced at 120 s intervals, into 250 μl of 60 μM H3 peptides, nucleosomes or oligonucleosomal arrays under constant stirring at 1,000 r.p.m. (injection #1–10: 0.5 μl each; injection #11–32: 1 μl each; injection #33–37: 2 μl each). Heats of dilution, obtained by the titration of hHP1β into buffer, were substracted from raw data before analysis. Raw data were integrated, normalized and the apparent heat change (Δq) of the reaction was plotted against the molecular ratio using the Origin software. For the determination of apparent enthalpy changes (ΔHapp), the molar association constant (KA), and the stoichiometry (n) of the interaction, non-linear least-square fitting of the Δq values was performed by the Origin software using a binding model of one set of identical binding sites.
Supplementary Table 1: Summary of conditions used in the different experiments of this study.
experiment result modification template Temp. [NaCl] [MgCl2] […]

H3K9me3 oligonucleosomes = test: Scanning force microscopy; type: biochemical, Xenopus laevis; settings: 50 mM NaCl
Description: Nucleosomal arrays and recombinant hHP1β were dialyzed against SFM buffer (5 mM triethanolamine (pH7.5), 50 mM NaCl, 0.1 mM EDTA). The recombinant proteins at different concentrations (between 0 and 5 μM) were preincubated with oligonucleosomes at a DNA concentration of 50 ng ml^−1 in SFM buffer for 1 h at 4°C, and the samples were fixed with 0.05% (v/v) fresh glutaraldehyde (Electron Microscopy Sciences, PA, USA) at 4°C overnight. Fixed samples were extensively dialyzed against TEAE buffer (5 mM triethanolamine (pH 7.5), 0.1 mM EDTA). 10 μl of dialyzed sample was deposited on ca. 1 cm^2 of freshly cleaved mica (Plano). After 5 min incubation at RT, the mica was washed with 200 μl of water (high-performance liquid chromatography grade) and air-dried. Images were recorded in air on a Nanoscope V Multi Mode scanning force microscope (Veeco, NY, USA) using an ‘E'-scanner with maximum scan size of 15 × 15 μm and silicon-etched probe tips with a typical spring constant of 40 N m^−1 and a typical resonance frequency of 325 kHz (NSC15, MikroMasch) in tapping mode. […]

H3K9me3 peptide = biological target: T1, H3K9me3 peptide (Homo sapiens, UniProt P68431); test: SPR, immobilized H3K9me3 peptide; type: binding; settings: for association kinetics: H3K9me3 surfaces of different density; for dissociation (release from matrix): more pronounced at higher H3K9me3 surface densities
T1 construct: C-terminally biotinylated histone H3 peptides (aa 1–20)
Description: SPR measurements were performed on a Biacore 2000 instrument (GE Healthcare, Buckinghamshire, UK) at 298 K in 10 mM triethanolamine (pH 7.5), 150 mM NaCl, 0.1 mM EDTA, 1 mM DTT, 0.005% (v/v) Tween-20. Biotinylated ligands were immobilized on streptavidin-coated sensor chips SA (GE Healthcare, Buckinghamshire, UK). Before immobilization, sensor chips were conditioned as described by the manufacturer. To obtain low surface densities (5–24 RU), 5 nM biotinylated H3 peptide was injected at a low rate of 10 μl min^−1 using varying contact times. High surface densities (>700 RU) were prepared by injecting […] peptide (10 μl min^−1) until the SA surface was saturated. Peptide-containing chips were regenerated by applying three short pulses of 0.05% (w/v) SDS followed by an injection of 1.5 M NaCl for baseline stabilization. For binding assays, hHP1β proteins were injected at […] (serial twofold dilutions) for 2 min (30 μl/min). Dissociation was recorded for up to 5 min. A streptavidin surface without ligands served as reference. In addition, blank runs were performed for double referencing. Data evaluation was performed by steady-state analysis assuming a Langmuir 1:1 binding model using BIAevaluation 4.1 and Prism 5.04 (GraphPad, CA, USA) software. Binding to the unmodified peptides was analysed with maximum binding (RUmax) set to the corresponding values obtained with the modified peptides.
Figure S8 Hiragami-Hamada et al.
20 30 one site-specific 20 30 one site-specific […]
time [s] concentration [ μM] time [s] concentration [ μM]
40 two site-specific 40 one site-specific […]
time [s] concentration [ μM]
Supplementary Figure 8: hHP1β binds nucleosomes as dimer.
(a) Dynamic light scattering (DLS) analysis of recombinant hHP1β WT (blue) and I161A (red).
(b) SPR response traces of injection of hHP1β WT into Biacore cells containing biotinylated H3K9me3-peptide immobilized on a sensory chip via covalently coated streptavidin. Immobilized peptide was at 24
RU. Injection series are from 0.024 to 50 µM protein concentration.
(c) Blot of signal over concentration of the titration in (b) to deduce an apparent Kd value. Best fitting was achieved by one site-specific binding model.
(d ) Same analysis as in (b) but with hHP1β I161A.
(e) Blot of signal over concentration of the titration in (d) to deduce an apparent Kd value. […]
(also on this page, place not known: dimer . hHP1 β H3K9me3 - se nsory ( b) site -specific ( b) hHP1 β ( d) site -specific hHP1 β modifi ed H3K9me3 -mononucleosomes H3 -tails -30 -50 -8 -4 200 -10 110 -50 -10 -30 [μM] [μM] -10 190 150 -10 110 200 -10 110 μl/min μl/min μl/min -50 150 response [RU] response [RU] response [RU] response [RU] response [RU] [μM] 10 50 response [RU]40 0 0 [μM] 10 30 50 response [RU] 40 0 0 40 [μM] 10 30 50 response [RU] 140 40 0 120 0 40 response [RU] response [RU] response [RU] Kd Kd μM Kd μM 0.8 0.6 0.4 0.2 0 1 1.0 0.8 0.6 0.4 0.2 0.0 mass fraction)

[1] = SPR titration 0.024 to 50 µM, peptide at 24 RU, one site-specific binding model, read-out: apparent Kd (Supplementary Fig. 8c,e)
[2] = SPR, 150 mM NaCl, pH 7.5, 298 K, steady-state, WT value based on fitting to a one site-specific binding model, read-out: Kd (apparent dissociation constant)

Substance: hHP1β WT: recombinant human heterochromatin protein 1β (GenBank NM_001127228), 185 aa
- better binding at the higher compared with the lower salt concentration (H3KC9me3 mononucleosome; 150 mM versus 20 mM NaCl): 2.7 fold
- Kd (H3KC9me3 mononucleosome; 20 mM NaCl): 59 ± 8 µM
- Kd (H3KC9me3 mononucleosome; 150 mM NaCl): 22 ± 8 µM
- structures observed by SFM (H3K9me3 oligonucleosomes; 0.5 μM protein): individual but highly condensed H3K9me3 chromatin species
- structures observed by SFM (H3K9me3 oligonucleosomes; 5 μM protein): larger clusters that must contain multiple oligonucleosomes were visible
- frequency of condensed chromatin fibres and large clusters, H3K9me0 (H3K9me3 oligonucleosomes; H3K9me0 chromatin, n>50): much lower for H3K9me0 chromatin with hHP1β WT
- stronger binding to the H3K9me3 matrix compared with the I161A protein (H3K9me3 peptide; SPR titration): 10 fold
- Kd (H3K9me3 peptide; [1]): 0.73 µM
- Kd (H3K9me3 peptide; [2]): 0.7 ± 0.1 µM
- binding mode (H3K9me3 peptide; SPR, H3K9me3 peptide and mononucleosome surfaces): fully consistent with a bivalent interaction mode
- association kinetics (H3K9me3 peptide; SPR): very fast association kinetics
- dissociation (release from matrix) (H3K9me3 peptide; SPR): released more slowly

Substance: hHP1β I161A: CSD point mutant of hHP1β incapable of dimerization
- Kd (H3KC9me3 mononucleosome; 20 mM NaCl): 223 ± 30 µM
- Kd (H3KC9me3 mononucleosome; 150 mM NaCl): 58 ± 17 µM
- frequency of condensed chromatin fibres and large clusters (H3K9me3 oligonucleosomes; H3K9me3 chromatin, n>50): much lower
- Kd (H3K9me3 peptide; [1]): 7.5 µM
- Kd (H3K9me3 peptide; [2]): 7 ± 0.4 µM
- association kinetics (H3K9me3 peptide; SPR): very fast association kinetics
- dissociation (release from matrix) (H3K9me3 peptide; SPR): dissociated rapidly from the H3K9me3 ligand
